Target: NP‐WT S nanoparticles (nanoparticles coated with WT spike proteins) (SARS-CoV-2)
Experiment: SPR

B1: P5‐1C8 IgG (full‐length) (antibody, V domains shown)
VH: EVQLVESGGGLIQPGGSLRLSCAASEIIVSRNYMNWVRQAPGKGLEWVSVIYSGGSTFYADSVKGRFTISRDNSENTLYLQMNSLRAEDTAVYYCARGYGDYYFDYWGRGTLVTVSS
VL: not shown
koff: 2.19e-05 s⁻¹

Source: paper PMC12931240 (2025)
